From PMC3617921

Target: MBP-Brh2 (U. maydis)
Test: pull-down

Substance: hexahistidine (His)-tagged Dss1 (natural protein)
- fold lower level of Dss1 in the DNA-bound fraction than with Brh2Δ362–493::OB-AB: > 20 fold
